This is an account of results in patent US20160137713A1 (HANALL BIOPHARMA, published 2016).

Test [1] concerns the target T1, soluble human FcRn (human, UniProt P55899 24-297; P61769 21-119).
T1 construct: extracellular domain;mature; Non-covalent heterodimer secreted by 293 cells, purified on IgG Sepharose; also called shFcRn; soluble FcRn
The test is described as follows: SPR, shFcRn immobilised, pH 7.4. The method, then:
(§1) Measurement of the binding ability of antibody by SPR was performed by immobilizing shFcRn as a ligand onto a Proteon GLC chip (Bio-Rad) and measuring affinity.
(§2) The analysis of ligand and analyte was performed using a Proteon GLC chip, and the interaction was analyzed at a pH of 6.0 and a pH of 7.4. Immobilization of the ligand was activated by injecting a 1:1 mixture of 1×EDAC (EDC) and 1× Surfo-NHS for 5 minutes. shFcRn was diluted in 10 mM sodium acetate (pH 4.5) at a concentration of 25 μg/ml and added to the ligand at a flow rate of 30 μl/min for 5 minutes. […] The analyte antibody was allowed to flow on the immobilized chip at a flow rate of 30 μl/min. […] The association time of the analyte antibody was 240 seconds, and the dissociation time was 600 seconds. Regeneration of the chip was performed by injecting 10 mM glycine (pH 2.5) at a flow rate of 100 μl/min for 18 seconds. Based on sensorgrams resulting from six concentrations of the analyte, kinetics analysis was performed using Proteon XPR36 software.
In general terms: SPR reads the build-up and loss of mass on a sensor chip optically.

In a further test the target is T2, rat FcRn on Rat-2 cells (rat, UniProt P13599 23-366; P07151 21-119).
T2 construct: whole, on cells
T2 sequence (looked up): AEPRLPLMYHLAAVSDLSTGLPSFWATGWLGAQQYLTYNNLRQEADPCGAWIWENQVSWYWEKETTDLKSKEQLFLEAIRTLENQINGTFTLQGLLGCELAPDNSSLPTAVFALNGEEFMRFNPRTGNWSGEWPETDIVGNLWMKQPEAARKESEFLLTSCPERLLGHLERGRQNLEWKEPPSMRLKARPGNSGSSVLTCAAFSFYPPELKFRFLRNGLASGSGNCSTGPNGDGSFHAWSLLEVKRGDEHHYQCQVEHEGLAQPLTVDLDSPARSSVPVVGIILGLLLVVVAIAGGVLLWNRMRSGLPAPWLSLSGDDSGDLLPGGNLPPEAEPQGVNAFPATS
T2 sequence (b2m, looked up): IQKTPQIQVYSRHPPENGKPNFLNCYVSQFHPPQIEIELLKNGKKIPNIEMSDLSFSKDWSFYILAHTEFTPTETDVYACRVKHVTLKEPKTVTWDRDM
The test is described as follows: FACS on rat FcRn-expressing Rat-2 cells at pH 6.0 and pH 7.4, FITC anti-human IgG goat antibody; MFI relative to hIgG. The method, then: Rat-2 (KCTC #AC28203), rat fibroblasts stably expressing rat FcRn, were cultured in 10% FBS DMEM medium, and then detached from the culture plate by trypsin treatment. The cells were washed three times with cold binding buffer (PBS pH 6.0, 10 mM EDTA), and then diluted in binding buffer at a concentration of 10⁵ cells/ml. 100 μl of the cell dilution was dispensed into each 1.5-ml tube in such a manner that each tube contained 10⁴ cells, and 1 μl of HL161 antibody (1 mg/ml) was added to the dispensed cells. Next, the cells were incubated on ice. As control antibodies, 1 μl of each of mouse 1G3 antibody and human IgG antibody (Abcam, cat#. 409120), which bind to rat FcRn, was used. The 1G3 antibody was produced and purified from mouse hybridoma cells (ATCC CRL2434). The cells were recovered by centrifugation at 4° C. and 4000 rpm for 5 minutes, after which the cells were washed once with binding buffer and resuspended in 100 μl of binding buffer. As FITC-conjugated secondary antibody, 1 μl of anti-human IgG goat antibody (Invitrogen, cat#. A11013) was added to the cells. In the case of the experiment using anti-rat FcRn mouse antibody, the anti-mouse IgG goat antibody (Invitrogen, cat#. A11001) was incubated with the cells on ice for 1 hour, and then the cells were recovered by centrifugation at 4° C. and 4000 rpm for 5 minutes, washed once with binding buffer, resuspended in 400 μl of binding buffer and analyzed by FACS to examine the cross-reactivity of the HL161 antibodies with rat FcRn (see FIG. 4). An experiment at a pH of 7.4 was performed using binding buffer at a pH of 7.4 in the same manner as the experiment using binding buffer at a pH of 6.0. The degree of the binding of each antibody to rat FcRn was presented as relative MFI based on human IgG.

Test [2] deals with T3, human FcRn on HEK293 cells (human, UniProt P55899 24-365; P61769 21-119).
T3 construct: whole, on cells; also called hFcRn
The test is described as follows: FACS competition on hFcRn HEK293 cells at pH 6.0; remaining binding of 100 nM Alexa488-labeled hIgG1 (m14) with 1000 nM competitor antibody, percent of the tube without competitor. As to the method: In stable HEK293 cells expressing human FcRn, the blocking of the antibody against FcRn was analyzed by FACS. The antibody was diluted in binding buffer (PBS pH 6.0, 10 mM EDTA) at concentrations of 2,000 nM, […] to make 50 μl of dilutions, which were dispensed into tubes. […] Stable HEK293 cells were diluted in binding buffer at a concentration of 2,500,000 cells/ml, and 40 μl of the cell dilution was added to each of the labeled antibody-containing tubes. Thus, a final volume of 100 μl contained 100,000 cells, 100 nM labeled antibody and 1000 nM, 500 nM or 250 nM competitor antibody. The cells were washed once with 150 μl of buffer (pH 6.0), and pellets were obtained therefrom and resuspended in 150 μl of buffer having pH difference. The suspension was transferred into a tube for FACS analysis. The cells were analyzed by FACS using BD FACSDiva™ v6.1.3 software (BD Bioscience). The results of the analysis were expressed as mean fluorescence intensity (MFI).
The MFI of the test group was processed after subtracting the MFI (background signal) measured in cells alone.

Test [3] has as its target T1, soluble human FcRn. The test is described as follows: SPR, shFcRn immobilised, pH 6.0. As to the method:
as §1, §2

T1 sequence (P55899 24-297, chain 1 of 2): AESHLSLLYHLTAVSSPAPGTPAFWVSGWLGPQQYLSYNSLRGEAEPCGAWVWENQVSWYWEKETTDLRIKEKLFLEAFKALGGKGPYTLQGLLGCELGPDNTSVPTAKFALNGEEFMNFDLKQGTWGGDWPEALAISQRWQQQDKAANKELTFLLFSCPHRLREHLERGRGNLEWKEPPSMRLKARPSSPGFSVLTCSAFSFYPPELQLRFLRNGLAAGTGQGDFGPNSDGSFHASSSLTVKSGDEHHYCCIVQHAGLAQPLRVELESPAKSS
T1 sequence (P61769 21-119, chain 2 of 2): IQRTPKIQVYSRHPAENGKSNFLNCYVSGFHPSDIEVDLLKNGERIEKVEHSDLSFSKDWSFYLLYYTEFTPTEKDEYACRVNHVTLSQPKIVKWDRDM
T3 sequence (P55899 24-365, chain 1 of 2): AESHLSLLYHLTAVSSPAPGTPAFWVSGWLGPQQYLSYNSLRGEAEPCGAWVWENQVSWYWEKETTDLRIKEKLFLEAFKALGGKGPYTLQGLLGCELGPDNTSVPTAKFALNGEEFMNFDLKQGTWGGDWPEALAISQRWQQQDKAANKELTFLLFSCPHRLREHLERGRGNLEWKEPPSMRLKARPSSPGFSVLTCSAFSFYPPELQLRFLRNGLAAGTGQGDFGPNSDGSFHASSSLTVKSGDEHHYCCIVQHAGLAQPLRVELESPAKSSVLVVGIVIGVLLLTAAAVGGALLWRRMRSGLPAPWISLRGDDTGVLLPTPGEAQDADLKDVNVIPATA
T3 sequence (P61769 21-119, chain 2 of 2): as the sequence (P61769 21-119, chain 2 of 2) above

B1: HL161-11H (antibody, V domains shown)
VH: QMQLVESGGGLVQPGRSLRLSCAASGFTFSSYAMHWVRQAPGKGLEWVAVISYDGSNKYYADSVKGRFTISRDNSKNTLYLQMNSLRSEDTAVYYCSRGSGGRDAFDVWGQGTMITVSS
VL: DIQMTQSPSTLSASVGDRVTITCRASQSISSRLAWYQQKPGKAPKLLIYKASSLETGVPSRFSGSGSGTEFTLTISSLQPDDFATYYCQQTNSFPLTFGGGTKVEIK
notes: Whole human IgG from pNATAB vectors
On to B1, for which, in the test with soluble human FcRn [1], the koff came out at 0.00045 s⁻¹ and the kon came out at 500000 M⁻¹ s⁻¹. In the test with rat FcRn on Rat-2 cells, the binding result was “no binding”. Also, in test [2], the “Relative MFI(%) at 1000nM” value is 51.8%. Besides, in the test with soluble human FcRn [3], the koff was 0.00034 s⁻¹ and the kon is 970000 M⁻¹ s⁻¹.

One may read the koff as the rate constant with which the complex falls apart. A low value points to slow dissociation. The kon is the rate constant with which the complex forms.
